Laboratory results taken from patent EP4610277A1 (Daiichi Sankyo Company, Limited, dated 2025).

Target: T1, recombinant KIR2DL1 (extracellular domain-Fc-Avi, in-house) (human)
T1 construct: IL-2 signal peptide left out; also called soluble KIR2DL1
Assay: flow cytometry, KIR-Fc 0.1 µM on scFv-K562 cells

T1 sequence (chain, as listed by the source): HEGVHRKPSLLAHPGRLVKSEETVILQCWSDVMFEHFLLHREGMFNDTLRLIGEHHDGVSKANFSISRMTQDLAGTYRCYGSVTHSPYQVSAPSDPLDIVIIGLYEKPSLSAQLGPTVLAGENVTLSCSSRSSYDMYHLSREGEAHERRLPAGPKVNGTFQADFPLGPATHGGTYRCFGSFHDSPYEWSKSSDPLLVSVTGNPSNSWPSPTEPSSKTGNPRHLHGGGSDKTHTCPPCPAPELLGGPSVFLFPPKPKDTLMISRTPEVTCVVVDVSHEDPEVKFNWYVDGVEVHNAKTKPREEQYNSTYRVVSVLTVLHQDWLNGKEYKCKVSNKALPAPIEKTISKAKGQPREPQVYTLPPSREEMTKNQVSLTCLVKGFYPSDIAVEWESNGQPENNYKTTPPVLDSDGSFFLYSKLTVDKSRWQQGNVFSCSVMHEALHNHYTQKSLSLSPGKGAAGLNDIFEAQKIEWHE

binding result	Binder
binds	membrane-type a2DL1-DS1 scFv (scFv, On K562 cells) scFv: DYKDDDDKGSGQVQLQQSGPELVRASQTLSLTCAISGDSVSSNSATWNWIRQSPSRGLEWLGRTYYRSKWYNDYAVSVKSRITINPDTSKNQFSLQLNSVTPEDTAVYYCARDSPSYGRGVFDIWGQGTLVTVSSGGGGSGGGGSGGGGSDIVMTQSPDSLAVSLGERATINCKSSQSVLYSSNNKNYLAWYQQKPGQPPKLLIYWASTRESGVPDRFSGSGSGTDFTLTISSLQAEDVAVYYCQQYYSPPYTFGQGTKLEIKALSNSIMYFSHFVPVFLPAKPTTTPAPRPPTPAPTIASQPLSLRPEACRPAAGGAVHTRGLDFACDIYIWAPLAGTCGVLLLSLVITLYCNH
binds	membrane-type a2DL1-DS11 scFv (scFv, On K562 cells) scFv: DYKDDDDKGSGEVQLVQSGAEVKKPGSSVKVSCKASGGTFSSYAISWVRQAPGQGLEWMGGIIPIFGTANYAQKFQGRVTITADESTSTAYMELSSLRSEDTAVYYCARGLRFFDYWGQGTLVTVSSGGGGSGGGGSGGGGSQSVLTQPPSASGTPGQRVTISCSGSSSNIGTNTVNWYQQFPGTAPKLLIYSNNQRPSGVPDRFSGSKSGTSGSLAISGLQSEDEADYYCAAWDDSLQGWLFGGGTKLTVLALSNSIMYFSHFVPVFLPAKPTTTPAPRPPTPAPTIASQPLSLRPEACRPAAGGAVHTRGLDFACDIYIWAPLAGTCGVLLLSLVITLYCNH
